Reference: FireProtDB (doi:10.1021/bi982158q)

Settings: Bos taurus, pH 7, K2HPO4 5 mM, transition: 2, reversible: Yes, whole UniProt chain shown; for Tm: Thermal

B1: Cytochrome b5 wild type, P00171 (protein)
chain: MAEESSKAVKYYTLEEIQKHNNSKSTWLILHYKVYDLTKFLEEHPGGEEVLREQAGGDATENFEDVGHSTDARELSKTFIIGELHPDDRSKITKPSESIITTIDSNPSWWTNWLIPAISALFVALIYHLYTSEN
- denaturant m value (25 °C, Urea, Absorbance): 1.26 kcal/mol/M
- denaturant midpoint (higher = more stable) (25 °C, Urea, Absorbance): 6.9 M
- unfolding free energy (25 °C, Urea, Absorbance): 8.7 kcal/mol
- Tm (Absorbance): 75.2 °C
- Tm (Fluorescence): 50.1 °C
